Source: paper PMC4413028 (Science (New York, N.Y.), 2015)
Residue numbers refer to the chain shown, from its start. Numbers in names are those of the source.

B1: Get3(D57N) (native, full-length S. cerevisiae Get3, ATP hydrolysis mutant) (natural protein)
chain: MDLTVEPNLHSLITSTTHKWIFVGGKGGVGKTTSSCSIAIQMALSQPNKQFLLISTNPAHNLSDAFGEKFGKDARKVTGMNNLSCMEIDPSAALKDMNDMAVSRANNNGSDGQGDDLGSLLQGGALADLTGSIPGIDEALSFMEVMKHIKRQEQGEGETFDTVIFDTAPTGHTLRFLQLPNTLSKLLEKFGEITNKLGPMLNSFMGAGNVDISGKLNELKANVETIRQQFTDPDLTTFVCVCISEFLSLYETERLIQELISYDMDVNSIIVNQLLFAENDQEHNCKRCQARWKMQKKYLDQIDELYEDFHVVKMPLCAGEIRGLNNLTKFSQFLNKEYNPITDGKVIYELEDKE
B2: 6xHis-tagged Get3(D57N) (natural protein)
chain: B1 chain
B3: Get3 (S. cerevisiae, wild-type) co-expressed with 6xHis-Pep12(262-288) (natural protein)
chain: B1 chain with N57D
B4: Get3 (S. cerevisiae, full-length, wild-type) (natural protein)
chain: B1 chain with N57D

Columns and labels:
[1] = target: B1; test: crystal structure
SEC-MALS [2] = target: the molecule itself; test: SEC-MALS
SEC-MALS [3] = target: the molecule itself; test: SEC-MALS; remark: listed apart in the source
[4] = target: the molecule itself; test: sucrose gradient sedimentation
[5] = target: B3; test: SEC-MALS

| binding result [1] | Binder | stoichiometry N (SEC-MALS [2]) | further results |
| --- | --- | --- | --- |
| binds | KINFDLLISQYAPIVIVAFFFVFLFWWIFLK (domain or fragment) [Sec22(184-214), truncated TA substrate with N-terminal 6xHis tag] | – | – |
| – | B1 | 2 | – |
| – | B2 | – | stoichiometry N (SEC-MALS [3]): 2 |
| – | B3 | 4 | – |
| – | B4 | – | stoichiometry N [4]: 2 |
| binds | KRTSRWRVYLLIVLLVMLLFIFLIMKL (domain or fragment) [Pep12(262-288), truncated TA substrate with N-terminal 6xHis tag] | – | binding result [5]: binds |
